Measurements from paper PMC2855817 (Biochemistry, 2010).
Where two headings read alike, the source gives them in different places.

Experiments:
[1] = molecular target: T1, PFE (Pseudomonas fluorescens esterase; aryl esterase) (Pseudomonas fluorescens, UniProt P22862, L30P); settings: pH 5.5, 23 °C; estimated upper limit
T1 sequence (P22862 2-272 L30P): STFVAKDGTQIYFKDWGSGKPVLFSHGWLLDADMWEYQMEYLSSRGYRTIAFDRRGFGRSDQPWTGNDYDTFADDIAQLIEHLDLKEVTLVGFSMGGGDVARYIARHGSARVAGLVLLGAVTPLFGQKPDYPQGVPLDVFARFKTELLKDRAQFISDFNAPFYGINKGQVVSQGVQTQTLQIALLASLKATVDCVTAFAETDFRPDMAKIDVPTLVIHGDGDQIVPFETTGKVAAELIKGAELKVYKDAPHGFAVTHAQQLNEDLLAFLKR

[2] = molecular target: T1, PFE (Pseudomonas fluorescens esterase; aryl esterase); settings: pH 5.5, 23 °C
[3] = molecular target: L29P variant of Pseudomonas fluorescens (SIK WI) aryl esterase (PFE) (Pseudomonas fluorescens SIK WI); assay: crystal structure
[4] = tested on: O=C1CCCCCO1; assay: purified protein; assay type: biochemical, Pseudomonas fluorescens; settings: pH 7.2, BES, 23 °C

Work on `CC(=O)OO` [peracetic acid] yielded a Km [1] of less than 3 µM and a Km [2] of 41 ± 5 µM.

“L29P variant of Pseudomonas fluorescens (SIK WI) aryl esterase (PFE) (enzyme)” gave a stoichiometry N [3] of 6.

With “PFE (Pseudomonas fluorescens esterase; aryl esterase) (Pseudomonas fluorescens; L30P)” the Km [4] was 39000 ± 1000 µM, the kcat [4] was 11 ± 1 s⁻¹ and the kcat/Km [4] was 280 M⁻¹ s⁻¹.
